For test [1], the target named is T1, cloned L-type channels (subunit α1C77) (Homo sapiens, UniProt Q13936).
T1 construct: expressed in transfected cells; host or cells: HEK293 stably transfected with α2-δ and β1C (HEKα2β1), transiently transfected with α1C77 and GFP
The experiment in a line: Check for use-dependence of diltiazem block of cloned L-type channels. It is filed as cell-based. Conditions: 100 μM; same solutions and voltage protocol as granule cells. Here is the method: Dissociated cerebellar granule cells were prepared from 7-day old C57/BL6 mouse cerebella and grown in culture by a published protocol (Piedras-Renteria and Tsien, 1998; Randall and Tsien, 1995). The cerebellar granule cells were maintained in Minimal Essential Medium (Invitrogen) supplemented with 10% fetal bovine serum, glucose 5 mg/liter, transferrin 100 mg/liter, insulin 25 mg/liter, glutamine 300 mg/liter, and potassium chloride 20 mM. Cells were plated on Matrigel (Collaborative Biomedical Product) treated glass coverslips in 24-well chambers and maintained in a humidified, 37° C. incubator with […]/5% CO2. Cells were maintained for 6 to 9 days in culture prior to electrophysiological experiments. HEK293 cells stably transfected with the α2-δ and β1C subunits (HEKα2β1) were grown in Dulbecco's Modified Eagle's Medium containing 10% v/v calf serum, penicillin (100 units/ml), streptomycin (100 μg/ml), and kept under positive selection with Geneticin (400 μg/ml) while being maintained as described above. cDNAs encoding the α1C77 subunit (Zühlke and Reuter, 1998) and the green fluorescent protein were transiently transfected into HEKα2β1 cells by using the Lipofectamine2000 reagent (Invitrogen). Electrophysiological experiments were performed >24 hrs after transfection.

Test [2] has as its target T2, autophosphorylated α-CaMKII / α1C amino acids 1581-1690 (Rattus norvegicus, UniProt P11275).
T2 construct: made in house; GST fusion proteins from bacterial lysates
The experiment in a line: GST pull down of autophosphorylated α-CaMKII with α1C aa 1581-1690, peptide competition. It is filed as binding. Conditions: 40 μM peptide; 20 nM α-CaMKII. How it is done: (B) Immunoblot with CBα2 after GST pull down of purified autophosphorylated α-CaMKII (20 nM), using α1C amino acids 1581-1690 fused to GST. Pull down assay performed in the presence of 40 μM of the indicated peptide or the peptide diluent DMSO. (C) Immunoblots with CBα2 or an anti-CaM antibody after a GST pull down assay, using α1C amino acids 1581-1690 (WT), a ^1644TVGKFY^1649→EEDAAA mutant (Mut6), or GST alone, of purified autophosphorylated CaMKII (left) or CaM (right). Top panels show a Ponceau stain of each fusion protein. […] Asterisk indicates p<0.001 for a one-way analysis of variance followed by a Dunnett's test to identify specific pair-wise differences between the means for Mut6 vs. wt and GST vs. wt, n=4-8. […] Top panels show a Ponceau stain of each fusion protein.
The binding reactions were accomplished in Tris binding buffer (50 mM Tris, 150 mM NaCl, 0.1% T-20 at pH 7.4 ml plus 0.1% BSA) containing 20 nM purified CaMKII. The total protein from the HEK293 cell lysates added to each binding reaction ranged from 9-22 μg, determined by normalizing for the amount of CaMKII activity (Singla et al., 2001). Pre-autophosphorylayion of CaMKII (purified and lysate) was accomplished at 4° C. for 5 min in Tris binding buffer plus 1 mM CaCl2, 5 μM CaM, 1 mM ATP, and 5 mM MgCl2 to restrict the sites of autophosphorylation to primarily Thr286 (Ikeda et al., 1991; Lai et al., 1987; Lou and Schulman, 1989). Final concentration of these components in the binding reaction (1:40) was 0.025 mM CaCl2, 0.125 μM CaM, 0.025 mM ATP, and 0.125 MM MgCl2. The binding reaction was rocked for 1 h at 4° C. and the beads extensively washed in Tris binding buffer (2-3× for 5 mins each). Immunoblots were performed multiple times with identical results and Ponceau staining was always performed to ensure equal loading and transfer. CaMKII binding was quantified using densiotometric measurement of band intensity using KODAK 1D Image Analysis Software (Eastman Kodak, Company). […]

Test [3] deals with L-type Ca^2+ currents in cerebellar granule cells. The experiment in a line: Patch-clamp of Ca2+-dependent facilitation of L-type currents in cerebellar granule cells. Format: cell-based, C57/BL6 mouse. Conditions: 2 μM peptide in patch pipette; Ca^2+ charge carrier; train of five pulses; without peptide facilitation ~50%. Here is the method: Dissociated cerebellar granule cells were prepared from 7-day old C57/BL6 mouse cerebella and grown in culture by a published protocol (Piedras-Renteria and Tsien, 1998; Randall and Tsien, 1995). The cerebellar granule cells were maintained in Minimal Essential Medium (Invitrogen) supplemented with 10% fetal bovine serum, glucose 5 mg/liter, transferrin 100 mg/liter, insulin 25 mg/liter, glutamine 300 mg/liter, and potassium chloride 20 mM. Cells were plated on Matrigel (Collaborative Biomedical Product) treated glass coverslips in 24-well chambers and maintained in a humidified, 37° C. incubator with […]/5% CO2. Cells were maintained for 6 to 9 days in culture prior to electrophysiological experiments. […]
Cerebellar granule cells, identified on the basis of morphology and size, comprised >90% of the cells in the primary culture. […] Voltage-gated Ca^2+ and Ba^2+ currents were recorded from cells depolarized to 0 mV with five 20 ms pulses (50 ms interpulse interval) from a −90 mV holding potential. […]

The results in this text go back to patent US20060079445A1, “CaMKII/calcium channel binding-related compositions and methods” (priority 2004, published 2006).

T1 sequence (Q13936 1-2138 isoform Q13936-20): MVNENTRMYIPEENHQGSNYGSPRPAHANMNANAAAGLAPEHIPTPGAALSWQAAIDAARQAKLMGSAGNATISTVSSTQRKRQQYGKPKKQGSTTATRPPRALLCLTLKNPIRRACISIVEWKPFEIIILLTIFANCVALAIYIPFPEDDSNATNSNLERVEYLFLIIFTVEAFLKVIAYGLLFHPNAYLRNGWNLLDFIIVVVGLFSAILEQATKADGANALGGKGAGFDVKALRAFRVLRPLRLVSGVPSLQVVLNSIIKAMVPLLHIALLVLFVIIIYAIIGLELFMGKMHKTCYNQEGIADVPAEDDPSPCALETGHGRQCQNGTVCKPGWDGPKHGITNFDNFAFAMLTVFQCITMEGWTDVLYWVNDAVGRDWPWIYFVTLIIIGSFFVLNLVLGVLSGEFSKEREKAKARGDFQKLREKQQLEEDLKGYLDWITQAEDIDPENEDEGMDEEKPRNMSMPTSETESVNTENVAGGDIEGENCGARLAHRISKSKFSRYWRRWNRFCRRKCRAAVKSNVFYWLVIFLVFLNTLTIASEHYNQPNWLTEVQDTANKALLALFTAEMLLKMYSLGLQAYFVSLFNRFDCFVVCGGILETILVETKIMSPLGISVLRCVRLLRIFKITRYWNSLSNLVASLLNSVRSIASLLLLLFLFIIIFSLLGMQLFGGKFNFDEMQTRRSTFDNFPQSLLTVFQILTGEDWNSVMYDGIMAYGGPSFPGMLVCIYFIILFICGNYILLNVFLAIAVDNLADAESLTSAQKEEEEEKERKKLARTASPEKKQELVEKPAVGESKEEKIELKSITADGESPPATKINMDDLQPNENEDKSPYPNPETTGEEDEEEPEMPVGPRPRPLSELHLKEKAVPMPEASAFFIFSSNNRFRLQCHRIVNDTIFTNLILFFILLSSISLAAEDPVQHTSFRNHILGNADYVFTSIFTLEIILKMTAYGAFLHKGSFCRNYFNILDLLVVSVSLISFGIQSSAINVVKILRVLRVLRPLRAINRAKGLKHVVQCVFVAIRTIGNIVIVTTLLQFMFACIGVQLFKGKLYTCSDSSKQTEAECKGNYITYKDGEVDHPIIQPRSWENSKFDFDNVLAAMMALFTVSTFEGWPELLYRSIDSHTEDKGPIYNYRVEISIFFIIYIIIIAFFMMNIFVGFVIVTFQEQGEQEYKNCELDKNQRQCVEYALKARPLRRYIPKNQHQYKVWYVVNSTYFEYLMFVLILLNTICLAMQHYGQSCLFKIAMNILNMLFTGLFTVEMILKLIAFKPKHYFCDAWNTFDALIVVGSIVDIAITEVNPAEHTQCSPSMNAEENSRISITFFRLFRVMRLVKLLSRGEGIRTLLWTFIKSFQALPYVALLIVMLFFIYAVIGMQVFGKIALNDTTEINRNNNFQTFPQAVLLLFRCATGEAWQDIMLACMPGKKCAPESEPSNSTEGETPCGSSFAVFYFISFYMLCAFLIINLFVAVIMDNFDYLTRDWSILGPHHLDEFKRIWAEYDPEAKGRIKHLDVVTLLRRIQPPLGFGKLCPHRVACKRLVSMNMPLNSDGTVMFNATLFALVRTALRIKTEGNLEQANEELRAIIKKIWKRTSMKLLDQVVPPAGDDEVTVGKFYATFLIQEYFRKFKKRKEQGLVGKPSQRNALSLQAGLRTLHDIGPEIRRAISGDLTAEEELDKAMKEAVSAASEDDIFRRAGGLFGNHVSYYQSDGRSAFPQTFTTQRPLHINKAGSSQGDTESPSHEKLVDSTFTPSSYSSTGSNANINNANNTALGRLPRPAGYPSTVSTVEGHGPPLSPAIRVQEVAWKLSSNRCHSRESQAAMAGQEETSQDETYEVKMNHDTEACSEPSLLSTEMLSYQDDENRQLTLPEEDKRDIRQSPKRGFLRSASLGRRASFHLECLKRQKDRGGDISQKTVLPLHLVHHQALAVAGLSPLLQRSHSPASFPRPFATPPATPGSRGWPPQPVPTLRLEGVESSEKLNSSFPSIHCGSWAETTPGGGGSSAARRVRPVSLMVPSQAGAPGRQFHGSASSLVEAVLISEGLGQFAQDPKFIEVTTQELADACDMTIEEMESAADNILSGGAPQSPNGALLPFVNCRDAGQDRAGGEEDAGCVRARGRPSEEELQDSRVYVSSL
T1 sequence (Q02641 whole entry partner): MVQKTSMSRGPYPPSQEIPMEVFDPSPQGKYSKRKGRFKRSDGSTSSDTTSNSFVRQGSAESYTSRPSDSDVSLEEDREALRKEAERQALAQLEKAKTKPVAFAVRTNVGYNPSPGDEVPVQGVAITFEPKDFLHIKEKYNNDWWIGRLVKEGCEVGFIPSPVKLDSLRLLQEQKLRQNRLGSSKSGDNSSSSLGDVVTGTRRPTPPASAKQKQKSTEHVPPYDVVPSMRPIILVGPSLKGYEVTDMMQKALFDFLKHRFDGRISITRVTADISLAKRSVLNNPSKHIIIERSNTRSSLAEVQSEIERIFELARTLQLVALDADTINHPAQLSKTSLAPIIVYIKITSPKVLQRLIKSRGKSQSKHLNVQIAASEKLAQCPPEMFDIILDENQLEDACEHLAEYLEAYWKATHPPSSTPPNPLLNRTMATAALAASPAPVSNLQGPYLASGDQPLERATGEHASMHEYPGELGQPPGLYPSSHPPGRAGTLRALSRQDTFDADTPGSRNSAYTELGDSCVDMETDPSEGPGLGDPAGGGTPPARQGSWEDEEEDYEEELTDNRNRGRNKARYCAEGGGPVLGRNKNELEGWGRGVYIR
T1 sequence (P54289 25-946 partner limits assumed): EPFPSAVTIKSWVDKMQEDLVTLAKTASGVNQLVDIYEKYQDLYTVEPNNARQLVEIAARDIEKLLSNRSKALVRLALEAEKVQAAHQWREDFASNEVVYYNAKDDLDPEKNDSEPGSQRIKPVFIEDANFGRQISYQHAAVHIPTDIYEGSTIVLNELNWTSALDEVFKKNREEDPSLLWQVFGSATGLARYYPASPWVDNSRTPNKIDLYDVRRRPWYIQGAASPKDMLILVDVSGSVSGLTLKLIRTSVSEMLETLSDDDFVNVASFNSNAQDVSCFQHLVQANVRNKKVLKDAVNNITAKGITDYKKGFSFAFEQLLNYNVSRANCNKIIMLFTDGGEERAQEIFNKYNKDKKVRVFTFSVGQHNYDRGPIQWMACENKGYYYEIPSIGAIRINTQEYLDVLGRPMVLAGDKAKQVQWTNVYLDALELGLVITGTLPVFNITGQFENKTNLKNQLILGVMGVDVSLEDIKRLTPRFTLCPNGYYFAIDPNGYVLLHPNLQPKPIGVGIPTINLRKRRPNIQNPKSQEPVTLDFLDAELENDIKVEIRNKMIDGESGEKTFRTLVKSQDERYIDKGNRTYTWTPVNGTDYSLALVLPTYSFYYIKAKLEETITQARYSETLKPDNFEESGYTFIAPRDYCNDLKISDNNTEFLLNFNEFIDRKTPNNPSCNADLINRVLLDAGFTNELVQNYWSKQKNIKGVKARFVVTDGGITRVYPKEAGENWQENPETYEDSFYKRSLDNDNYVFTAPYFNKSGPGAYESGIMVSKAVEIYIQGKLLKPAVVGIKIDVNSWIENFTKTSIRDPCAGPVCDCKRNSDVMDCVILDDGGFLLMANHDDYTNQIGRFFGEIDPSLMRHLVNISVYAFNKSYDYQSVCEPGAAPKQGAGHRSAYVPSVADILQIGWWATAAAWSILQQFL
T1 sequence (P54289 947-1103 partner limits assumed): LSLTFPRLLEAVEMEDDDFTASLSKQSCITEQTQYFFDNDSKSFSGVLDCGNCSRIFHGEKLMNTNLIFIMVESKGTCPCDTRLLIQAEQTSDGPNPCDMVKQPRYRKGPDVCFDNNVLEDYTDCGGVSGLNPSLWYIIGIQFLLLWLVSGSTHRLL

Consider `COc1ccc([C@@H]2Sc3ccccc3N(CCN(C)C)C(=O)[C@@H]2OC(C)=O)cc1` [diltiazem], for which the “use-dependence of block of calcium currents” value in test [1] was “none were found”.

“1589-1610: ~22 aa peptide of α1C residues 1589-1610, site important for tethering of apoCaM (KRLVSMNMPLNSDGTVMFNATL; UniProt Q13936 1589-1610, looked up, fragment)”: the “interaction of autophosphorylated CaMKII with the 1581-1690 fusion protein” value (“interaction of autophosphorylated CaMKII” below) in test [2] is “not inhibited”.

Take “1615-1636: ~22 aa peptide of α1C residues 1615-1636, site important for tethering of apoCaM (RTALRIKTEGNLEQANEELRAI; UniProt Q13936 1615-1636, looked up, fragment)”: in test [2], the “interaction of autophosphorylated CaMKII” value is listed as “not inhibited”.

Take “KKALRRQEAVDAL [autocamtide-2-related inhibitory peptide]”: in test [3], the “decrease in peak L-type current over the course of the depolarizing pulse train” value was roughly 25%.

Regarding “1639-1660: ~22 aa peptide generated from α1C residues 1639-1660, contains TVGKFY (KIWKRTSMKLLDQVVPPAGDDE; UniProt Q13936 1639-1660, looked up, fragment)”, in test [2], the “interaction of autophosphorylated CaMKII” value is recorded as “dramatically reduced”.
